Positions count from the first letter of the chain named. Names and notes keep the numbering of the source.
T1: PUF4 RNA-binding domain (Saccharomyces cerevisiae, UniProt P25339 537-888)
T1 sequence: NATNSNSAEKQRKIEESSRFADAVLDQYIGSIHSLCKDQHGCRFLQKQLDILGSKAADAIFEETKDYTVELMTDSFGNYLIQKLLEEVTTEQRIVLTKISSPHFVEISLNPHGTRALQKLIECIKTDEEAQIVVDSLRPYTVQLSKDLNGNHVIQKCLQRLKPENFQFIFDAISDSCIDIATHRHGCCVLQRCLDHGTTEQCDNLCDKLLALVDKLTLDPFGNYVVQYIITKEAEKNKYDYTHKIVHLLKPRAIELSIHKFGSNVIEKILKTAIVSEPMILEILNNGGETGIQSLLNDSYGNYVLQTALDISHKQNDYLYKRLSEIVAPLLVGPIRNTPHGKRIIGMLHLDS

B1: Ib_S2_P3E.1_K3.1_C3.1_H3.1_[T3C]_[A4G]_A3.1_F3.1_T3.1 (ssRNA)
RNA: UUUGAUUAAUAUGAUAUCGUUCUUUCUUGCGUAUAUUCUUUCUCGAUAUCAUAUUAAUCUUU
B2: Ib_S2_P3E.1_K3.1_C3.1_H3.1_[T1C]_A3.1_[T5A]_F3.1_T3.1 (ssRNA)
RNA: B1 RNA with U28C, C30U, G31A, U32A
B3: Ib_S2_P3E.1_K3.1_C3.1_H3.1_[T1G]_A3.1_[A6T]_F3.1_T3.1 (ssRNA)
RNA: B1 RNA with U28G, C30U, G31A, A33U
B4: Ib_S2_P3E.1_K3.1_C3.1_H3.1_[T1A]_A3.1_[T5C]_F3.1_T3.1 (ssRNA)
RNA: B1 RNA with U28A, C30U, G31A, U32C
B5: Ib_S2_P3E.1_K3.1_C3.1_H3.1_[T1G]_A3.1_[A6G]_F3.1_T3.1 (ssRNA)
RNA: B1 RNA with U28G, C30U, G31A, A33G

Target: T1, PUF4 RNA-binding domain
Test: Mg; RNA-MaP; 20 mM Na-HEPES pH 7.4, 30 mM KOAc, 0.75 mM MgCl2, 0.1% Tween-20, 5% glycerol, 0.1 mg/mL BSA, 2 mM DTT; 25 C; 0.0125-409.6 nM protein
Settings: tags: N-His6-TEV cleaved; C-SNAP kept, Cy3B-labelled; label: tethered on chip by stalled RNA polymerase

Binder	Kd
ACAAACUGUCUCUUAUUAUUAACAAAC (ssRNA) [Ie_S3_P5E.1_K5.1_C5.1_H5.1_[+2TCTCT]_A5.1_F5.1_T5.1]	0.513 µM
ACAAACUGUAUUACUCUCUUAACAAAC (ssRNA) [Ie_S3_P5E.1_K5.1_C5.1_H5.1_A5.1_[+7CTCTC]_F5.1_T5.1]	0.128 µM
ACAAACUGUAUUAUUCCCAACAAAC (ssRNA) [Ie_S3_P5E.1_K5.1_C5.1_H5.1_A5.1_F5.1_[+9CCC]_T5.1]	0.0181 µM
ACAAACUGUAUUUCUCUAUUAACAAAC (ssRNA) [Ie_S3_P5E.1_K5.1_C5.1_H5.1_A5.1_[+6TCTCT]_F5.1_T5.1]	0.0384 µM
ACAAACUGUAUUACCCUUAACAAAC (ssRNA) [Ie_S3_P5E.1_K5.1_C5.1_H5.1_A5.1_[+7CCC]_F5.1_T5.1]	0.51 µM
ACAAACUGUAUUAUCUCUCUAACAAAC (ssRNA) [Ie_S3_P5E.1_K5.1_C5.1_H5.1_A5.1_F5.1_[+8CTCTC]_T5.1]	0.0291 µM
ACAAACUGUAUUAUCCCUAACAAAC (ssRNA) [Ie_S3_P5E.1_K5.1_C5.1_H5.1_A5.1_F5.1_[+8CCC]_T5.1]	0.0375 µM
ACAAACUGUAUCCCUUUAUUAACAAAC (ssRNA) [Ie_S3_P5E.1_K5.1_C5.1_H5.1_A5.1_[+5CCCTT]_F5.1_T5.1]	0.0926 µM
ACAAACUGUCCUAUAUUAACAAAC (ssRNA) [Ie_S3_P4E.1_K4.1_C4.1_H4.1_[+3CCT]_A4.1_F4.1_T4.1]	0.0599 µM
ACAAACUGUAUUACUUUUAACAAAC (ssRNA) [Ie_S3_P5E.1_K5.1_C5.1_H5.1_A5.1_[+7CTT]_F5.1_T5.1]	0.115 µM
ACAAACUGCUUAUUAUUAACAAAC (ssRNA) [Ie_S3_P5E.1_K5.1_C5.1_H5.1_[+2CT]_A5.1_F5.1_T5.1]	> 2.3 µM
ACAAACUGUAUUAUUCCUAACAAAC (ssRNA) [Ie_S3_P5E.1_K5.1_C5.1_H5.1_A5.1_F5.1_[+9CCT]_T5.1]	0.0199 µM
ACAAACUGUAUAUUCCUAACAAAC (ssRNA) [Ie_S3_P4E.1_K4.1_C4.1_H4.1_A4.1_[+7TCC]_F4.1_T4.1]	0.00723 µM
ACAAACUGUCCCUAUAUUAACAAAC (ssRNA) [Ie_S3_P4E.1_K4.1_C4.1_H4.1_[+3CCCT]_A4.1_F4.1_T4.1]	0.602 µM
ACAAACUGUCUCUAUUAUUAACAAAC (ssRNA) [Ie_S3_P5E.1_K5.1_C5.1_H5.1_[+3CTCT]_A5.1_F5.1_T5.1]	0.366 µM
ACAAACUGUAUUAUUUUCAACAAAC (ssRNA) [Ie_S3_P5E.1_K5.1_C5.1_H5.1_A5.1_F5.1_[+9TTC]_T5.1]	0.0198 µM
ACAAACUGUAUAUUUCUCAACAAAC (ssRNA) [Ie_S3_P4E.1_K4.1_C4.1_H4.1_A4.1_F4.1_[+8TCTC]_T4.1]	0.00877 µM
ACAAACUGUCCCUUAUUAUUAACAAAC (ssRNA) [Ie_S3_P5E.1_K5.1_C5.1_H5.1_[+3CCCTT]_A5.1_F5.1_T5.1]	0.698 µM
ACAAACUGCUAUAUUAACAAAC (ssRNA) [Ie_S3_P4E.1_K4.1_C4.1_H4.1_[+2C]_A4.1_F4.1_T4.1]	0.672 µM
B1	1.1 µM
B2	> 2.3 µM
B3	> 2.3 µM
B4	> 2.3 µM
B5	0.277 µM
ACAAACUGUAUAUUAUUCCACAAAC (ssRNA) [Ie_S3_P4E.1_K4.1_C4.1_H4.1_A4.1_F4.1_[+9TTCC]_T4.1]	0.000554 µM
ACAAACUGCUUUAUAUUAACAAAC (ssRNA) [Ie_S3_P4E.1_K4.1_C4.1_H4.1_[+2CTT]_A4.1_F4.1_T4.1]	0.896 µM
ACAAACUGUACUCUUAUUAACAAAC (ssRNA) [Ie_S3_P5E.1_K5.1_C5.1_H5.1_[+4CTC]_A5.1_F5.1_T5.1]	0.00773 µM
ACAAACUGUAUCCCUAUUAACAAAC (ssRNA) [Ie_S3_P5E.1_K5.1_C5.1_H5.1_A5.1_[+5CCC]_F5.1_T5.1]	0.0243 µM
ACAAACUGUAUUCCUAUUAACAAAC (ssRNA) [Ie_S3_P4E.1_K4.1_C4.1_H4.1_[+4TTCC]_A4.1_F4.1_T4.1]	0.00985 µM
ACAAACUCUCGUAUUAUUAACAAAC (ssRNA) [Ie_S3_P5E.1_K5.1_C5.1_H5.1_[+1CTC]_A5.1_F5.1_T5.1]	1.83 µM

Reference: article PMC9352680, “A comprehensive thermodynamic model for RNA binding by the Saccharomyces cerevisiae Pumilio protein PUF4”
